The results in this text go back to patent publication US10059956B2, “Glycosyltransferase gene and use thereof” (SUNTORY HOLDINGS LIMITED, priority 2012, dated 2018).

The test system of one assay is NmGT8 protein. The assay is described as follows: Enzyme reaction of flavone substrates with His-tag purified NmGT8 protein solution and UDP-glucose (HPLC). It is filed as biochemical, Nemophila menziesii. The conditions noted are these: reactivity to various flavonoid compounds of FIG. 11 and betanidine. How it is done: The transformed E. coli were cultured at 37° C. to an OD600 value of 0.5 in 8 ml of the prepared culture liquid (approx. 4 hours). This E. coli culture liquid was then used as a pre-culture liquid and added to 200 ml of culture liquid followed by final culturing overnight at 25° C.
Following final culturing overnight, the E. coli culture liquid was centrifuged (1000×g, 4° C., 10 minutes), the collected cells were suspended in 20 ml of extract (composition: buffer (KCl: 300 mM, KH2PO4: 50 mM, imidazole: 5 mm) (pH 8.0), amidinophenylmethanesulfonyl fluoride hydrochloride (APMSF): 10 μM), and after crushing the E. coli by ultrasonic treatment, the crushed cells were centrifuged (1400×g, 4° C., 20 minutes) followed by recovery of the supernatant. This supernatant was passed through a 0.45 μm filter and purified by His-Tag protein purification using Profinia (Bio-Rad Laboratories, Inc.) in accordance with the protocol recommended by the manufacturer. The resulting purified protein solution was centrifuged (7500×g, 4° C., 15 minutes) using centrifugal filters (Ultracel-10K, Amicon Corp.) and the concentrated protein solution was designated as “NmGT8 Protein Solution”. The Avanti HP-26XP (rotor: JA-2) (Beckman Coulter Inc.) was used for centrifugation.
A reaction liquid prepared by mixing 10 μl of protein solution, 2 μl of 50 mM UDP-glucose, 10 μl of 1 M Tris HCl (pH 7.5) and 5 μl of 1 mM apigenin on ice and bringing to a volume of 100 μl with water was held for 20 minutes at 30° C. Subsequently, 100 μl of stop buffer (90% aqueous acetonitrile solution containing 0.1% TFA) were added to stop the reaction followed by analyzing the reaction liquid by high-performance liquid chromatography (Prominence (Shimadzu Corp.)). The Shimadzu PDA SPD-M10AVP was used for the detector and flavone was detected at 330 nm. The Shim-Pack ODS 150 mm×4.6 mm column (Shimadzu Corp.) was used for the column. A Solution A (0.1% aqueous TFA solution) and a Solution B (90% aqueous methanol solution containing 0.1% TFA) were used for elution. Elution was carried out using a linear concentration gradient from an 8:2 mixture of the two solutions to a 3:7 mixture of the two solutions over the course of 10 minutes followed by a 3:7 mixture for 6 minutes. The flow rate was 0.6 ml/min.

In assay [1] the test system is petunia (Surfinia Bouquet Red). The assay is described as follows: Flower petal pigment analysis of recombinant petunia introduced with NmGT8. It is filed as in vivo. The text has this:
Binary vectors pSPB5424 and pSBP5428 for expressing NmGT8 were constructed and introduced into petunia (Surfinia Bouquet Red). […] Details of the introduced constructs are described below (see FIG. 17). pBINPLUS was used for the basic skeleton of pSPB5424, and three expression cassettes were contained therein (consisting of 1: E[…] promoter, full-length cDNA pansy F3'5'H (described in PCT/JP2004/011958, SEQ ID NO: 3) and HSP terminator (Plant Cell Physiology (2010), 51, 328-332); 2: E[…] promoter, full-length cDNA torenia flavone synthase and HSP terminator; and 3: E[…] promoter, full-length cDNA NmGT8 and HSP terminator). pBINPLUS was also used for the basic skeleton of pSPB5428, and two expression cassettes were contained therein (consisting of 1: E[…] promoter, full-length cDNA torenia flavone synthase and HSP terminator; and 2: E[…] promoter, full-length cDNA NmGT8 and HSP terminator). Pigments in the flower petals were analyzed for full-length cDNA torenia flavone synthase and full-length cDNA NmGT8 in those stains in which transcription products were confirmed. 0.2 g of completely open flower petals were freeze-dried for 24 hours or more and finely crushed with a spatula, followed by the addition of 4 ml of extract buffer (composition: 50% aqueous acetonitrile solution containing 0.1% TFA) and subjecting to ultrasonic treatment for 20 minutes. The flower petal extract was analyzed by high-performance liquid chromatography (Prominence (Shimadzu Corp.)). Analyses were carried out under the conditions and in the same manner as in Example 5. Non-recombinant petunia not introduced with genes and recombinant petunia introduced only with torenia flavone synthase that biosynthesizes flavone were analyzed in the same manner as controls (FIG. 18). Moreover, flower petal extract diluted 50-fold was also analyzed with a high-performance liquid chromatograph (Shimadzu Corp.). The Shimadzu LCMS-IF-TOF was used for the detector and flavones were detected at 433.1057 ([Api-Glc+H]) and 449.1084 ([Lut-Glc+H]). The Inertsil ODS-4 (250×4.6 mm, 5 Shimadzu Corp.) was used for the column. […]

Where [2] appears, read: recombinant petunia flower petal extract, LC-MS.

B1: NmGT8: nemophila glycosyltransferase (SEQ ID NO: 1/2) having activity that transfers a sugar to the hydroxyl group at the 4′-position of a flavone (protein, listed as Nemophila menziesii)
chain: MEKKTIILYPSPGIGHLVSMVELAKLILNREPSYSIIIFISSAPYSTGSSAPYISHVSATTSGISFHHLPVLVLPPNTFSSFEEIAYKIPQLNNPNLKLALQTISKESSDLKAFIIDFFCTAAVEVSSNLEIPTYFFFTSGSSAMCQFLYLPTLHETITQKDLQDPNTYVHIPGIPPIHSLDLPKVLSNRSTVLYKELINTANQMAKCSGILINAFETLEPKAVKALKEGLCTPGMPTPPVYCIGPLIASGDKGNVNDAHGHEILTWLNSQPSKSVVFLCFGSLGTFKEDQLKEIAIGLENSGHRFLWVMKSPPIDDKTKRFLPPPEPDFNVLLPEGFLERTKERGVIVKSWAPQLAILNHDAIGGFVTHCGWNSVLEAICGGVPMLAWPLYAEQRVNRVCMVEEMKVALPLEESVDGFVMASEIEKRVKELVDYESSEAIRDQVKIMSEKAKTAVAVSGSSHDALTKLLDGWK
For the molecule B1, the substrate specificity result in the assay on NmGT8 protein was “high substrate specificity and selectively glycosylate the 4′-position of flavones”. Further, in assay [1] (setting [2]), the “flavone 4′-glucoside share of the biosynthesized flavones” value is on record as 95.6% and the “flavone 7-glucoside share of the biosynthesized flavones” value amounted to 4.4%. In addition, the “flavones detected in flower petals” value in assay [1] (recombinant petunia introduced with flavone synthase and NmGT8, HPLC) is “apigenin 4′-glucoside and luteolin 4′-glucoside were detected”.
